Article PMC5286394, “Architecture of the yeast Elongator complex” (EMBO Reports, 2016)

T1: endogenous Elp3 (S. cerevisiae (endogenous in strains …, UniProt Q02908 1-557))
T1 construct: Elp3, S. cerevisiae, endogenous protein; source: endogenous, S. cerevisiae strains BS1173 and BSY2369, co-purified with Elp1-TAP or Elp6-TAP
T1 sequence (looked up): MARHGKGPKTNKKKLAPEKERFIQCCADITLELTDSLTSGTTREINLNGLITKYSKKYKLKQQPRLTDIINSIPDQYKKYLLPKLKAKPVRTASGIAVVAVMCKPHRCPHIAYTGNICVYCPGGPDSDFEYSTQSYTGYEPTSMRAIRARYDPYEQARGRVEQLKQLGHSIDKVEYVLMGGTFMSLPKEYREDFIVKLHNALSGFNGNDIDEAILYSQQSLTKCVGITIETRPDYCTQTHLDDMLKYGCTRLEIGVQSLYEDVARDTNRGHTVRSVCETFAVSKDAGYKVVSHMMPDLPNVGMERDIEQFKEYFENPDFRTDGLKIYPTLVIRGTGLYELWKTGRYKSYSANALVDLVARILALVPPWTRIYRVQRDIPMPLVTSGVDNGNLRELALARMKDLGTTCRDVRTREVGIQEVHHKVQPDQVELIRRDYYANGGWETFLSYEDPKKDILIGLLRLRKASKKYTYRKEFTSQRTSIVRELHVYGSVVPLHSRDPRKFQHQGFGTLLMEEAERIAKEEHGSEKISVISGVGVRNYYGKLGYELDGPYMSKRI

T2: untagged full-length Elp1 (S. cerevisiae, UniProt Q06706 1-1349)
T2 construct: Elp1, Elongator subunit 1, S. cerevisiae; source: E. coli BL21 pSarRare, purified (NiNTA, TEV cleavage, second NiNTA, gel filtration); not shown: His6, N-terminal, cleaved; GST, N-terminal, cleaved
T2 sequence (looked up): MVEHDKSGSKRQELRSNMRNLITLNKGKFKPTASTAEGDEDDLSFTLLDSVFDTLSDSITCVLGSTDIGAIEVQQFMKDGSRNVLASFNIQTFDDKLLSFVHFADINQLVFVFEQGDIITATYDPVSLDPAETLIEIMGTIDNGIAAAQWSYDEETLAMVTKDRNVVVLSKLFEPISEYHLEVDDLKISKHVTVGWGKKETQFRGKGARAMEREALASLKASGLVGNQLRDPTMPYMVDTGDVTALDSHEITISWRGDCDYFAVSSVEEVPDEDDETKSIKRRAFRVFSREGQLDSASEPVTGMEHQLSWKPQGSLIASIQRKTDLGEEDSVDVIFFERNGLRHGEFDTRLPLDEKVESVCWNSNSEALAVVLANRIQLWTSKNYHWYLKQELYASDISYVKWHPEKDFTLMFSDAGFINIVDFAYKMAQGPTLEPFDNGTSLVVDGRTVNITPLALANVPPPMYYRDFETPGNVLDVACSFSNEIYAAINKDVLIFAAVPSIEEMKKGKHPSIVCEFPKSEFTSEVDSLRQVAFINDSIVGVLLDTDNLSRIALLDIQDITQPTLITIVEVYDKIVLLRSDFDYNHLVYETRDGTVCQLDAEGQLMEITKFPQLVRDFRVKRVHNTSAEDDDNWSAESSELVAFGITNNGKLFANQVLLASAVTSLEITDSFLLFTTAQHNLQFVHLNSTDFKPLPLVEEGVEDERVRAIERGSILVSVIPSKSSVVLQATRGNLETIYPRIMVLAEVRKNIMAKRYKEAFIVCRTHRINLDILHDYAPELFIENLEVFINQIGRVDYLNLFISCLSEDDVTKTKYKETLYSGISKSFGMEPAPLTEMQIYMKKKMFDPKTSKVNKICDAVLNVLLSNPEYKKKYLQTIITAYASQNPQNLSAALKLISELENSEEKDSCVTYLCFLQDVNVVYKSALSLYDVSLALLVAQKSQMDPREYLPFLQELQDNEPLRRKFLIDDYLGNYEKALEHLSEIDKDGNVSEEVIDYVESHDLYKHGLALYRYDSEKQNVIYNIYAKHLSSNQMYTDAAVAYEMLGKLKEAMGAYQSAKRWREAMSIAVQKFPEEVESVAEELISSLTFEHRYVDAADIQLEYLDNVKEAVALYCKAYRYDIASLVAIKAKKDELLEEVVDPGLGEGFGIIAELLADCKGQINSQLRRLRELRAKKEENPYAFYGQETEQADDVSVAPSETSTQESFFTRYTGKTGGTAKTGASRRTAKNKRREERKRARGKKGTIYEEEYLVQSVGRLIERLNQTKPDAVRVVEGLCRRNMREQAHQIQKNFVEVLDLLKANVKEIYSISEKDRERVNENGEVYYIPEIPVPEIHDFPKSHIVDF

B1: endogenous Elp4 (natural protein, UniProt Q02884 1-456, looked up)
chain: MSFRKRGEILNDRGSGLRGPLLRGPPRTSSTPLRTGNRRAPGNVPLSDTTARLKKLNIADESKTKMGLDSSHVGVRPSPATSQPTTSTGSADLDSILGHMGLPLGNSVLVEEQSTTEFHSILGKLFAAQGIVHNRISDSSADKTRNGDTHVIVLSLNQMFAKELPGIYKGSRKQMKKNLISEEESKVTVQNLNETQRSTPSRYKDLKIAWKYKLADEKRLGSPDRDDIQQNSEYKDYNHQFDITTRLMPAPIASELTFIAPTQPVSTILSQIEQTIKRNDKKLIRIVIPSLLHPAMYPPKMFESSEIIGLMHGVRSLVKKYYERVVLFASISIDIITPPLLVLLRNMFDSVINLEPFNQEMTEFLERVYKSQPGKIQHGLVHILKLPVFTDRGEMRVLKSEWAFKNGRKKFEIEQWGIPVDDAEGSAASEQSHSHSHSDEISHNIPAKKTKISLDY
notes: Elp4, S. cerevisiae, endogenous protein; source: endogenous, S. cerevisiae strains BS1173 and BSY2369, co-purified with Elp1-TAP or Elp6-TAP
B2: endogenously TAP-tagged Elp1 (natural protein, UniProt Q06706 1-1349, looked up)
chain: T2 sequence (looked up)
notes: Elp1, S. cerevisiae, endogenous protein with TAP tag (Elp1-TAP::TRP1); also called Elp1-TAP
B3: GST-tagged Elp3 KAT domain (aa348–557) (domain or fragment, S. cerevisiae, UniProt Q02908 348-557, looked up)
chain: SYSANALVDLVARILALVPPWTRIYRVQRDIPMPLVTSGVDNGNLRELALARMKDLGTTCRDVRTREVGIQEVHHKVQPDQVELIRRDYYANGGWETFLSYEDPKKDILIGLLRLRKASKKYTYRKEFTSQRTSIVRELHVYGSVVPLHSRDPRKFQHQGFGTLLMEEAERIAKEEHGSEKISVISGVGVRNYYGKLGYELDGPYMSKRI
notes: Elp3, S. cerevisiae, lysine acetyl transferase (KAT) domain, residues 348–557; also called KAT domain of Elp3; source: E. coli BL21 pSarRare, purified (NiNTA, gel filtration); not shown: His6, N-terminal, kept; GST, N-terminal, kept
B4: hetero-hexameric Elp456 ring within the endogenous holoElongator (Elp6-TAP purification) (complex)
chain 1: B1 chain
chain 2: MASSSHNPVILLKRILSLTESSPFILCLDSIAQTSYKLIQEFVHQSKSKGNEYPIVYISFETVNKPSYCTQFIDATQMDFVHLVKQIISYLPAATATQAKKHMVIIDSLNYISTEYITRFLSEIASPHCTMVATYHKDIKDENRTVIPDWNNNYPDKLTLLQFMATTIVDIDVVLTGTLDTEEVSELLNEFRIPRGLNNDIFQLRLVNKRKSGRSLEYDFIVNSNTHEYELLSTTKQEEESSSNGLETPEMLQGLTTFNLGTSNKQKLAKDQVALPFLEAQSFGQGGAIVYEYEKDDDYDEEDPYEDPF
chain 3: MGSVQRQDLVLFSDQSVLPAHFFQDSNSHNLFFITHQSCTQPLWMINALVETHVLGSPSSLNESSSSMLPSSTRSHAVLASFIHEQNYFTNSLNKLKIPSNNYNVLDFLSDFIVNNIHNKPRDKILSDVLAKFSAAIQNNPTDTIVIIEQPELLLSLVSGLTCSELNNKFITPLLRQCKVLIIVSNSDIFNIDEYDASVHSSNLQNFYKSSFIKSMINLNLNPLKTGFAKDVTGSLHVCRGGAPIATSNTSLHVVENEYLYLNEKESTKLFYR
notes: Elp4, S. cerevisiae, endogenous protein; Elp5, S. cerevisiae, endogenous protein; Elp6, S. cerevisiae, endogenous protein with TAP tag; Only part of the TAP tag is left after TEV elution; copies: 2 + 2 + 2

How the values were obtained:
endogenous Elp3 = biological target: T1, endogenous Elp3; assay: cross-linking; XL-MS of purified Elongator (Elp1-TAP sample, 1 mg/ml) with isotope-coded DSS or DSG, 0.5–2 mM, 30 min at 37°C; xQuest/xProphet, ld score at least 30; conditions: both partners purified
[1] = biological target: B2; assay: tandem-affinity purification (SDS–PAGE); endogenous TAP-tagged bait from yeast lysate; IgG Sepharose, TEV elution, Calmodulin Sepharose, EGTA elution; HEPES pH 7.9, 125 mM NaCl; conditions: partners not purified
[2] = biological target: the molecule itself; assay: negative-stain EM reconstruction with integrative modelling (EM map and cross-links); Elp123 sub-complex from Elp1-TAP purification, 0.01% glutaraldehyde, gel filtration; 1% uranyl acetate; C2 symmetry, 27 Å
[3] = biological target: T2, untagged full-length Elp1; assay: pull-down; GST pull-down: 20 μg GST-tagged protein and increasing amounts of untagged partner with glutathione Sepharose, 2 h at 4°C, 20 mM Tris pH 7.5, 150 mM NaCl, 5 mM DTT, 0.1% Tween-20; five washes; SDS–PAGE, Coomassie; conditions: both partners purified
[4] = biological target: T3, Elp123 sub-complex within the endogenous holoElongator (Elp6-TAP purification) (S. cerevisiae (endogenous in strain …, UniProt Q06706 1-1349; P42935 1-788; Q02908 1-557); assay: negative-stain EM reconstruction with integrative modelling (EM map and cross-links); holoElongator from Elp6-TAP purification, 0.01% glutaraldehyde, gel filtration; 1% uranyl acetate; 31 Å; conditions: both partners purified
T3 construct: Elp1, S. cerevisiae, endogenous protein; Elp2, S. cerevisiae, endogenous protein; Elp3, S. cerevisiae, endogenous protein; copies: 2 + 2 + 2
T3 sequence (P42935 whole entry, one chain of several): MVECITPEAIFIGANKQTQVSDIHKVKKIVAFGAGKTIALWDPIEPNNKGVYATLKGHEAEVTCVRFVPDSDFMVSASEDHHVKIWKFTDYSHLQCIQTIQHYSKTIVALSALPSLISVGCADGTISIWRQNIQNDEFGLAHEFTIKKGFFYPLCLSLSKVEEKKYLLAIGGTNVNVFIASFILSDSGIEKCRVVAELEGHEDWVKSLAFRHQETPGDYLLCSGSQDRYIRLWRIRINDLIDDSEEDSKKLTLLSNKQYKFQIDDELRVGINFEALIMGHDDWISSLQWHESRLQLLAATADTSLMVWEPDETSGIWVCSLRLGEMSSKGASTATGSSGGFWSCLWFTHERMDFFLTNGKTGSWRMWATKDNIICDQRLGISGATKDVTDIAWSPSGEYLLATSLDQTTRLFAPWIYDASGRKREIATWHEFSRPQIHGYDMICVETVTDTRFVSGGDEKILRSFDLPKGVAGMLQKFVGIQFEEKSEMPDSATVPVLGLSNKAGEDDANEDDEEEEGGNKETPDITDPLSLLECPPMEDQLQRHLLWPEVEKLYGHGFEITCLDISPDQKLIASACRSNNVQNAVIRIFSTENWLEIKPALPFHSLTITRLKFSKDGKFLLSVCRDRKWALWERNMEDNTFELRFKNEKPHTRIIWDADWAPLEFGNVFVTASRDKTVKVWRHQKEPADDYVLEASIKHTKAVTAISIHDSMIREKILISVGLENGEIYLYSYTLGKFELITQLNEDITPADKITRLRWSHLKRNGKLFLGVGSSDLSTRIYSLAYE

B1
binding result (endogenous Elp3): binds
binding result [1]: binds

B2
stoichiometry N [2]: 2

B3
binding result [3]: binds

B4
stoichiometry N [4]: 1
